Measurements reported in publication doi:10.1101/2025.03.28.645925 (bioRxiv, 2025).
Substitutions are numbered along the chain they refer to. Names may count otherwise. “And” between values parts separate entries of the source, which are not always exact repeats. Identical values can stand only once. Like-named read-outs stand apart in the source and are kept apart here.

Legend:
[1] = target: NrdR2^PAO (GSGSGS-NrdR2, P. aeruginosa NrdR after TEV digestion) (P. aeruginosa PAO1); assay: SEC-MALS
[2] = target: NrdR2^PAO (GSGSGS-NrdR2, P. aeruginosa NrdR after TEV digestion) (P. aeruginosa PAO1); assay: SEC-MALS; remark: listed apart in the source
[3] = target: NrdR2^PAO (GSGSGS-NrdR2, P. aeruginosa NrdR after TEV digestion) (P. aeruginosa PAO1); assay: SEC-MALS; remark: listed apart in the source
[4] = target: NrdR1^PAO (P. aeruginosa NrdR with a two amino acid linker after SUMO protease digestion) (P. aeruginosa PAO1); assay: SEC
[5] = target: NrdR1^PAO (P. aeruginosa NrdR with a two amino acid linker after SUMO protease digestion) (P. aeruginosa PAO1); assay: SEC; remark: listed apart in the source
SEC-MALS [6] = target: the molecule itself; assay: SEC-MALS
P0A8D0 [7] = assay: SEC-MALS
P0A8D0 [8] = assay: SEC-MALS; remark: listed apart in the source
SEC-MALS [9] = target: the molecule itself; assay: SEC-MALS; remark: listed apart in the source
SEC-MALS [10] = target: the molecule itself; assay: SEC-MALS; remark: listed apart in the source
SEC-MALS [11] = target: the molecule itself; assay: SEC-MALS; remark: listed apart in the source
SEC-MALS [12] = target: the molecule itself; assay: SEC-MALS; remark: listed apart in the source
SEC-MALS [13] = target: the molecule itself; assay: SEC-MALS; remark: listed apart in the source
SEC = target: the molecule itself; assay: SEC

“NrdR2^PAO (GSGSGS-NrdR2, P. aeruginosa NrdR after TEV digestion) (natural protein)” was tested, and the stoichiometry N [1] was 2, the stoichiometry N [2] was greater than 2 and the stoichiometry N [3] was greater than 2.

In the case of “NrdR1^PAO (P. aeruginosa NrdR with a two amino acid linker after SUMO protease digestion) (natural protein)”, the stoichiometry N [4] is reported as 2 and 3 and the stoichiometry N [5] is reported as 6 and 2.

B1: SUMO-NrdR2^ECO E42A (natural protein, E. coli K-12 MG1655)
chain: ENLYPQGSGSGSMHCPFCFAVDTKVIDSRLVGEGSSVRRRRQCLVCNERFTTFAVAELVMPRVVKSNDVREPFNEEKLRSGMLRALEKRPVSSDDVEMAINHIKSQLRATGEREVPSKMIGNLVMEQLKKLDKVAYIRFASVYRSFEDIKEFGEEIARLED
In the case of B1, the “stoichiometry N” value (SEC-MALS [6]) is reported as 2, the “percent of the protein mass in the monomer peak” value (P0A8D0 [7]) is reported as 63% in a peak with average Mw 33.21 kDa and the “percent of the protein mass in the monomer peak” value (P0A8D0 [8]) is reported as 83% in a peak with average Mw 36.88 kDa.

B2: SUMO-NrdR2^ECO (undigested 6His-SUMO-TEVcs-(SGSGS)-NrdR, E. coli), wild type (natural protein, E. coli K-12 MG1655)
chain: B1 chain with A54E
B2 was tested, and the “stoichiometry N” value (SEC-MALS [6]) was 2 and ≥ 4, the “stoichiometry N” value (SEC-MALS [9]) was 12 and the “stoichiometry N” value (SEC-MALS [10]) was 4 and 8.

B3: SUMO-NrdR2^ECO E36A (natural protein, E. coli K-12 MG1655)
chain: B1 chain with E48A, A54E
B3 was tested, and the “stoichiometry N” value (SEC-MALS [6]) was 2 and ≥ 4 and the “stoichiometry N” value (SEC-MALS [10]) was 3.

B4: SUMO-NrdR2^ECO Y131A (natural protein, E. coli K-12 MG1655)
chain: B1 chain with A54E, Y143A
B4 was tested, and the “stoichiometry N” value (SEC-MALS [6]) was 2 and the “stoichiometry N” value (SEC-MALS [9]) was 4 and 8 and 3.

B5: SUMO-NrdR2^ECO Δ(132-149) (domain or fragment, E. coli K-12 MG1655)
chain: ENLYPQGSGSGSMHCPFCFAVDTKVIDSRLVGEGSSVRRRRQCLVCNERFTTFEVAELVMPRVVKSNDVREPFNEEKLRSGMLRALEKRPVSSDDVEMAINHIKSQLRATGEREVPSKMIGNLVMEQLKKLDKVAYIRFASVY
For B5, the “stoichiometry N” value (SEC-MALS [6]) was 2.

B6: NrdR2^ECO (GSGSGS-NrdR2, E. coli NrdR after TEV digestion) (natural protein, E. coli K-12 MG1655)
chain: GSGSGSMHCPFCFAVDTKVIDSRLVGEGSSVRRRRQCLVCNERFTTFEVAELVMPRVVKSNDVREPFNEEKLRSGMLRALEKRPVSSDDVEMAINHIKSQLRATGEREVPSKMIGNLVMEQLKKLDKVAYIRFASVYRSFEDIKEFGEEIARLED
B6 was tested, and the “stoichiometry N” value (SEC-MALS [6]) was 2, the “stoichiometry N” value (SEC-MALS [11]) was 6 and the “stoichiometry N” value (SEC-MALS [9]) was 15 to 16. For the same molecule, the “stoichiometry N” value (SEC-MALS [12]) was 3 and the “stoichiometry N” value (SEC-MALS [13]) was 4 to 10 (2×) and 8.

B7: NrdR^PAO-H6 (P. aeruginosa NrdR with a C-terminal 6His-tag) (natural protein, P. aeruginosa PAO1, UniProt Q9HWX1 1-154, looked up)
chain: MHCPFCGAHDTKVIDSRLVAEGDQVRRRRECLACGERFTTFETAELVMPRLIKQDGSRQPFDEDKLRAGMQRALEKRPVSVERLEAAIGHIKHQLRATGEREIKSRVLGELVMAELQKLDEVAYIRFASVYRRFQDLNEFREEIERLAREPAKE
B7: binds (SEC).
